Consider 16 molecules from publication PMC12955825 (Med (New York, N.Y.), 2025).

Common to all, as to test: phage-binding assay
Assay [1] concerns the target T1, CASQ1, human recombinant protein (human, UniProt P31415 35-396).
T1 sequence (looked up): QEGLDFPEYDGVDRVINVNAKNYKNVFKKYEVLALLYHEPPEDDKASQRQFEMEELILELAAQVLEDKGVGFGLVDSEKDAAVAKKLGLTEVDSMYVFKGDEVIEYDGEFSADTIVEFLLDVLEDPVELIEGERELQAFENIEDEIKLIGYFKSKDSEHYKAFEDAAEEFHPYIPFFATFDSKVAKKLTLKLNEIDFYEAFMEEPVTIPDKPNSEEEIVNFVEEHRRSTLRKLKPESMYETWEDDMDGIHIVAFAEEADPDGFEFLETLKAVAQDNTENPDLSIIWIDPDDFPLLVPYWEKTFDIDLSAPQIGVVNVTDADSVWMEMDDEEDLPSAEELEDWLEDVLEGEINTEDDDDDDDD

In assay [2] the target is T2, CRYAB, human recombinant protein (human, UniProt P02511 1-175).
T2 sequence (looked up): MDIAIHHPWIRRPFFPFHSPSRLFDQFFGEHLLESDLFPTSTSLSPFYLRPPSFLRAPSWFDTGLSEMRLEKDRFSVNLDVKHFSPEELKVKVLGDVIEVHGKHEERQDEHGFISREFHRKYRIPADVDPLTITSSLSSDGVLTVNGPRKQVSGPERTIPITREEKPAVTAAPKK

Another assay has as its target lactotransferrin (human, UniProt P02788 20-710).
Assay [3] has as its target T3, thioredoxin-dependent peroxide reductase (mitochondrial) (human, UniProt P30048 62-256).
T3 sequence (looked up): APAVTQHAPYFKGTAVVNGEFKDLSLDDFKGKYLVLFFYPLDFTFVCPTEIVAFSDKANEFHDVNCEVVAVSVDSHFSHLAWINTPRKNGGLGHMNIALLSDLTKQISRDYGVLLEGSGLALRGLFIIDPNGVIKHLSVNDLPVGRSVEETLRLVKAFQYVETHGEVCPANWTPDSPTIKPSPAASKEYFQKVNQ

Another assay deals with T4, annexin A1 (human, UniProt P04083 1-346).
T4 sequence (looked up): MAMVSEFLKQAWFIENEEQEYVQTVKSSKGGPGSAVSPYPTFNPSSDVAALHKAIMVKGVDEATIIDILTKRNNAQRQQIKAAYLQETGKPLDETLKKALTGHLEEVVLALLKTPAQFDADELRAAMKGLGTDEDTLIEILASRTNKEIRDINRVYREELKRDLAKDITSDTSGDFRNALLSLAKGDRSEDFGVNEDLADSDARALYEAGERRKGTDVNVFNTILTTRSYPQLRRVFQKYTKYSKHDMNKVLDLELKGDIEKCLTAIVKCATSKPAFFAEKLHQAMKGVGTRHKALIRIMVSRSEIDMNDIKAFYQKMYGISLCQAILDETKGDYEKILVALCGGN

Assay [4] has as its target HSP27, human recombinant protein (human, UniProt P04792 1-205).
The target in assay [5] is peptidyl-prolyl cis-trans isomerase B (human, UniProt P23284 34-216).
Assay [6] deals with T5, fructose-bisphosphate aldolase A (human, UniProt P04075 1-364).
T5 sequence (looked up): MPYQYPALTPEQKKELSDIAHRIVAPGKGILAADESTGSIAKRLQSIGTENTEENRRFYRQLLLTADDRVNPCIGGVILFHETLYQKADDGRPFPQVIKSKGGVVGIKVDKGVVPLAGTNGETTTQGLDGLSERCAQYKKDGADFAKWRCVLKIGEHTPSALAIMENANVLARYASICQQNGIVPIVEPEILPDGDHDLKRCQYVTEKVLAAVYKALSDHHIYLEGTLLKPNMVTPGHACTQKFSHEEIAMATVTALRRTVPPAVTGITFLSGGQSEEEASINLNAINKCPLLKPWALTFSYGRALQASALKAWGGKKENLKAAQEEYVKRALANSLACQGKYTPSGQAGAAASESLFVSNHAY

In assay [7] the target is 78 kDa glucose-regulated protein (human, UniProt P11021 19-654).
The next assay has as its target desmin (human, UniProt P17661 1-470).
Assay [8] addresses heat shock cognate 71 kDa protein (human, UniProt P11142 1-646).
In assay [9] the target is BAG family molecular chaperone regulator 3 (human, UniProt O95817 1-575).
The next assay concerns the target T6, calumenin (human, UniProt O43852 20-315).
T6 sequence (looked up): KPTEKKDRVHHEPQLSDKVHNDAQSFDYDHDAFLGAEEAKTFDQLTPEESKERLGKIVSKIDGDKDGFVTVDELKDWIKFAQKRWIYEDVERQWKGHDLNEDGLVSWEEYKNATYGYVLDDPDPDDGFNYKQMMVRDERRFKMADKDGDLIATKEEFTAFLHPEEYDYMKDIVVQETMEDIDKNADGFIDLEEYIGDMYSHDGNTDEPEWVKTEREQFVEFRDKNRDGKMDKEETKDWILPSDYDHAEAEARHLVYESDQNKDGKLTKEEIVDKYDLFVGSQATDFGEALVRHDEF

Assay [10] concerns the target T7, complement component 1 Q subcomponent-binding protein (mitochondrial) (human, UniProt Q07021 74-282).
T7 sequence (looked up): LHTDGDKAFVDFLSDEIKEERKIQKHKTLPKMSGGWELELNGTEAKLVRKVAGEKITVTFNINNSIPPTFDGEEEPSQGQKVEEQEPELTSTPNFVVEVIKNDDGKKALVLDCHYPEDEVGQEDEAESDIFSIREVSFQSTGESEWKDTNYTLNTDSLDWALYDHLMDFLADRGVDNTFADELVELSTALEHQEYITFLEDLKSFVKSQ

Bridge positions count the residues as written; N and C are the ends. Ends that are not written are not given here.

Chain of heat shock cognate 71 kDa protein (P11142 whole entry): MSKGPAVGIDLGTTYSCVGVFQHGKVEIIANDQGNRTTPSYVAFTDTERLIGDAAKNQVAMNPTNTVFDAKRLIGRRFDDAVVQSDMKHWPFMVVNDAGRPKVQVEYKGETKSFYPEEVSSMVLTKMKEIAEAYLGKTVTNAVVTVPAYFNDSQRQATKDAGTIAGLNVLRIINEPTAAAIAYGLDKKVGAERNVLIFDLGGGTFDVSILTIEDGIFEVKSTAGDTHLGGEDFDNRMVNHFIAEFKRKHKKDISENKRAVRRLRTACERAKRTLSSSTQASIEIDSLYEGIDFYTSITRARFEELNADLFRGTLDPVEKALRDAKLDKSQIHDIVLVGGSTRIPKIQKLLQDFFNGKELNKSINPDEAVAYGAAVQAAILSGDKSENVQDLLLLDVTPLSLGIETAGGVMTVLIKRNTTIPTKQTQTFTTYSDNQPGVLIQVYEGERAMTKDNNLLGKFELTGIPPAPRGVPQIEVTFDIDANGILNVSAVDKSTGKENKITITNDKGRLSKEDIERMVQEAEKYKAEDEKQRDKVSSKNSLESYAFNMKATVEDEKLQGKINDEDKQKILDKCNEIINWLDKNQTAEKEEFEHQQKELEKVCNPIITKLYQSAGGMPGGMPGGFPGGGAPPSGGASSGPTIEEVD
Chain of lactotransferrin (P02788 20-710): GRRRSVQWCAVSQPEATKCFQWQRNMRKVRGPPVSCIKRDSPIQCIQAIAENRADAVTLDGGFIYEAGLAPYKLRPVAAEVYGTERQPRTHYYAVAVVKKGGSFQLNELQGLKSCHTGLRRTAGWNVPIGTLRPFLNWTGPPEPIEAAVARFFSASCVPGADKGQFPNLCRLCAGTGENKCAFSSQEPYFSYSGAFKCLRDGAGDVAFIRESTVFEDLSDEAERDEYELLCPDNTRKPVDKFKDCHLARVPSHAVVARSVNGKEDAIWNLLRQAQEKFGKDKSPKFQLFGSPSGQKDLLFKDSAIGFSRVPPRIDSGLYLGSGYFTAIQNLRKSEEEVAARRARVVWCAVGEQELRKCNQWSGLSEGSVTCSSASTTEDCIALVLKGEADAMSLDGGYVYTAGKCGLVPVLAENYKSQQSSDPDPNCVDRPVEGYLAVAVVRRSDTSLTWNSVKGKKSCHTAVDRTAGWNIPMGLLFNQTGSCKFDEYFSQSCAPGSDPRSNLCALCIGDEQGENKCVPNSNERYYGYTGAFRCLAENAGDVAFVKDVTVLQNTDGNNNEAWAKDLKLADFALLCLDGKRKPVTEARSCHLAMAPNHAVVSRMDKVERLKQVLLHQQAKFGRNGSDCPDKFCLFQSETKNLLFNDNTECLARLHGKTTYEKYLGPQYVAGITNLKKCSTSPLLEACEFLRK
Chain of 78 kDa glucose-regulated protein (P11021 19-654): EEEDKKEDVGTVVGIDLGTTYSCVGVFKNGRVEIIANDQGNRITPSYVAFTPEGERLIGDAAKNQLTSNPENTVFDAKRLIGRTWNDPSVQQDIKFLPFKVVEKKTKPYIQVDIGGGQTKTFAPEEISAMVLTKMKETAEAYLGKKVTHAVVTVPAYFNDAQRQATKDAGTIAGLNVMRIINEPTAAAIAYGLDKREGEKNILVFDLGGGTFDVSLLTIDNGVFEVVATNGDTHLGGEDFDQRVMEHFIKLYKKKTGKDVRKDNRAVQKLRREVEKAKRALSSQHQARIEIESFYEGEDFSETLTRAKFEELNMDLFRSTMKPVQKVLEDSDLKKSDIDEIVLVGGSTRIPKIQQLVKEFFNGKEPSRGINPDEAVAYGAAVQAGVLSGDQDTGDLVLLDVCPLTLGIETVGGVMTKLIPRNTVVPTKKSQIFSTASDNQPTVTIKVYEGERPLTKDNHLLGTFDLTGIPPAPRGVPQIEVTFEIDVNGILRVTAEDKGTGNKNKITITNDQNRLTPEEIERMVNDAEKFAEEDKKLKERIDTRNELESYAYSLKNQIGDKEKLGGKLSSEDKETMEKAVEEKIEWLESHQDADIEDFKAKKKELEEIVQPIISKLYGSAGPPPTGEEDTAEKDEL
Chain of desmin (P17661 whole entry): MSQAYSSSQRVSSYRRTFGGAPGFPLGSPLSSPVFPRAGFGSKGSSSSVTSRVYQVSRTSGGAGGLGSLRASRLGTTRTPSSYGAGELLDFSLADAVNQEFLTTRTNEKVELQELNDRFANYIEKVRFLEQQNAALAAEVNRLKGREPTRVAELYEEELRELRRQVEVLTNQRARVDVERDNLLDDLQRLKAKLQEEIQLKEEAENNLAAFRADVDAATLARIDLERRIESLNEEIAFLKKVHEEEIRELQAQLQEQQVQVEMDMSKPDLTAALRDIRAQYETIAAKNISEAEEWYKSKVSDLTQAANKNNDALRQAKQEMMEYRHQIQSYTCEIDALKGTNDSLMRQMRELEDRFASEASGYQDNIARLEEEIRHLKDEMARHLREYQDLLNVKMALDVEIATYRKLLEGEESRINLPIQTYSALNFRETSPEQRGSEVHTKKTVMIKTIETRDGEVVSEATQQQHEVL
Chain of HSP27, human recombinant protein (P04792 whole entry): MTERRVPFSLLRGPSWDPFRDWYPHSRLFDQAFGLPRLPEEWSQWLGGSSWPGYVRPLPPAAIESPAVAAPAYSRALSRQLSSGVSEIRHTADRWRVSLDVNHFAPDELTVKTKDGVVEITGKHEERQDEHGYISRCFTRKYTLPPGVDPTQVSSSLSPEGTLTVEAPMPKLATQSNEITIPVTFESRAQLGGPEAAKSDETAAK
Chain of peptidyl-prolyl cis-trans isomerase B (P23284 34-216): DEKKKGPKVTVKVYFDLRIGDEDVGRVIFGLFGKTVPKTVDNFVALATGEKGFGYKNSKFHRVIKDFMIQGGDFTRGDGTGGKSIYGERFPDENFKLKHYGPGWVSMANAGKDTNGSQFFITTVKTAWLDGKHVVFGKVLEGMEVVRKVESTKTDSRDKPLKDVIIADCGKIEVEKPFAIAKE
Chain of BAG family molecular chaperone regulator 3 (O95817 whole entry): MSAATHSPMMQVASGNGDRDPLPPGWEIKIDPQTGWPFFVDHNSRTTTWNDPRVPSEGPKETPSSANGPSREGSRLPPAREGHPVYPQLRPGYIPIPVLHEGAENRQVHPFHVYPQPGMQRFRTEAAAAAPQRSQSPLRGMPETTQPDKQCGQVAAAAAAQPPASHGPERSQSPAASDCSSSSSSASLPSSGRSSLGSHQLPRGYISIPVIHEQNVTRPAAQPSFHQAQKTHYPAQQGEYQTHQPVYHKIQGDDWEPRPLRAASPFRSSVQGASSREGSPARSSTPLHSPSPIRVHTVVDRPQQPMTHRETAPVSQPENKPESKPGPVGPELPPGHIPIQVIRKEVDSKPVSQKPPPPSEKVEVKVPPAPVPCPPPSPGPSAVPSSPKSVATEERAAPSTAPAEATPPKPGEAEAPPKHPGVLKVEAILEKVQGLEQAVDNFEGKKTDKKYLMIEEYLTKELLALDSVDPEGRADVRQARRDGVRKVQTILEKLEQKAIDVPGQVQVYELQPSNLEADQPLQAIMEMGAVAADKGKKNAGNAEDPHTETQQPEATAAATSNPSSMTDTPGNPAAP

For the molecule CLRGFPALVC (disulfide 1-10) [CLRGFPALVC-displaying phage], the binding result in assay [1] is “binds”.
Regarding CRPARVRGAC (disulfide 1-10) [CRPARVRGAC-displaying phage], the binding result in [2] is “binds”.
For CGILGPWMAC (disulfide 1-10) [CGILGPWMAC-displaying phage], the binding result with lactotransferrin is listed as “binds”.
Take CTESFQKHLC (disulfide 1-10) [CTESFQKHLC-displaying phage]: the binding result in assay [3] is reported as “binds”.
Consider CHKPPNFGSC (disulfide 1-10) [CHKPPNFGSC-displaying phage], for which, in the assay with annexin A1, the binding result is “binds”.
In the case of CLVSGRSRC (disulfide 1-9) [CLVSGRSRC-displaying phage], the binding result in assay [4] was “binds”.
CASAVPISC (disulfide 1-9) [CASAVPISC-displaying phage]: the binding result in assay [5] is listed as “binds”.
Consider CKWEGLDMAC (disulfide 1-10; also: displayed on phage) [CKWEGLDMAC-displaying phage], for which the binding result in [6] was “binds”.
In the case of CVLRFFSSC (disulfide 1-9) [CVLRFFSSC-displaying phage], the binding result in assay [7] is “binds”.
Turning to CSRAKGRGAC (disulfide 1-10) [CSRAKGRGAC-displaying phage], the binding result with desmin is “binds”.
For CLNVSGRSC (disulfide 1-9) [CLNVSGRSC-displaying phage], the binding result in [8] is reported as “binds”.
For the molecule CRGFVRGSC (disulfide 1-9) [CRGFVRGSC-displaying phage], in assay [2], the binding result is recorded as “binds”.
For the molecule CEGKEDMQGC (disulfide 1-10) [CEGKEDMQGC-displaying phage], the binding result in assay [9] is “binds”.
In the case of CPTFFAVPC (disulfide 1-9) [CPTFFAVPC-displaying phage], the binding result with calumenin is given as “binds”.
As for CSRGSPDARC (disulfide 1-10) [CSRGSPDARC-displaying phage], the binding result in [10] is given as “binds”.
On to CLRGFQRVC (disulfide 1-9) [CLRGFQRVC-displaying phage], for which the binding result in [1] is reported as “binds”.
